Paper PMC5206653, “PDLIM5 links kidney anion exchanger 1 (kAE1) to ILK and is required for membrane targeting of kAE1” (Scientific Reports, 2017)

Biological target: T1, tag-free PDZ domain of PDLIM5 (PDLIM5-PDZ), first 127 residues (human, UniProt Q96HC4 1-127)
T1 construct: cDNA amplified from human kidney cDNA; a degradation product of the full-length construct in pSUMO3; also called untagged PDLIM5-PDZ; source: E. coli BL21, purified (Ni-NTA, SUMO proteinase 2 digestion, size-exclusion chromatography); not shown: His6-SUMO3, N-terminal, cleaved
T1 sequence (looked up): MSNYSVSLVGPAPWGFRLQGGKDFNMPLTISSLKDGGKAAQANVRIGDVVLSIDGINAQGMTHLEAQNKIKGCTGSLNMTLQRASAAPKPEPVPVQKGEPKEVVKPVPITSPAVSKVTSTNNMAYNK
Assay: ELISA; 100 μl of 30 μM GST_AE1C-WT, -Δ11, -M909T or GST alone immobilised on a 96-well plate; incubated with 100 μl of 2 μg/ml GST_PDLIM5, tag-free PDLIM5-PDZ or GST_ILK; detection with anti-PDLIM5-nt or anti-ILK, HRP, ABTS
Details: both partners purified

Binder | binding result
LIFRNVELQCLDADDAKATFDEEEGRDEYDEVAMPV (domain or fragment, human, last 36 residues of anion exchanger 1 (AE1, SLC4A1), the cytosolic C-terminal tail; cloned into pGEX-4T-1; source: E. coli BL21, purified (glutathione sepharose beads); not shown: GST, N-terminal, kept) [GST-tagged AE1 C-terminal domain, wild type (GST_AE1C-WT)] | binds
LIFRNVELQCLDADDAKATFDEEEGRDEYDEVATPV (domain or fragment, human, UniProt P02730 876-911, looked up, last 36 residues of anion exchanger 1 (AE1, SLC4A1) with the dRTA-causing mutation M909T; cloned into pGEX-4T-1; C-terminus becomes A908TPV; source: E. coli BL21, purified (glutathione sepharose beads); not shown: GST, N-terminal, kept) [GST-tagged AE1 C-terminal domain with the missense mutation M909T (GST_AE1C-M909T)] | binds
